We go through 1 molecule from article PMC9127583 (iScience, 2022).

This test deals with full-length Hsp70 (UniProt P0DMV8 1-641). The test is described as follows: NMR titration.
full-length Hsp70, sequence (P0DMV8 whole entry): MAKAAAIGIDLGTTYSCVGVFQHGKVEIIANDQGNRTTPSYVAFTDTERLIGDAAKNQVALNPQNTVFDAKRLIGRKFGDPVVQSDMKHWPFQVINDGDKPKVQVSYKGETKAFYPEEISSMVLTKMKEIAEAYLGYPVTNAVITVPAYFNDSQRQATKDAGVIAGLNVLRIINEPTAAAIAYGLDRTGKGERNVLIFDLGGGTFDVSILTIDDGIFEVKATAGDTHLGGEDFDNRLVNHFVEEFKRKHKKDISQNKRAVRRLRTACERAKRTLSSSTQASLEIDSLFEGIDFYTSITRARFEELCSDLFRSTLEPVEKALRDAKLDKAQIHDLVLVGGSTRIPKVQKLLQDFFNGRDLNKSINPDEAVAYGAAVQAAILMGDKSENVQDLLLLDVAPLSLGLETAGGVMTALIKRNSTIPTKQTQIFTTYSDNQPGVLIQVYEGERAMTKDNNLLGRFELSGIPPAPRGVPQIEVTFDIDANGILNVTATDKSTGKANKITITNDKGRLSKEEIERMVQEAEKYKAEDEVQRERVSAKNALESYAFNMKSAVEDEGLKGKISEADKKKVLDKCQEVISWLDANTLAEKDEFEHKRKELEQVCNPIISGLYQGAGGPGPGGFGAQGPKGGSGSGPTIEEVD

B1: FUS-LC (residues 1-163) (domain or fragment, UniProt P35637 1-163, looked up)
chain: MASNDYTQQATQSYGAYPTQPGQGYSQQSSQPYGQQSYSGYSQSTDTSGYGQSSYSSYGQSQNTGYGTQSTPQGYGSTGGYGSSQSSQSSYGQQSSYPGYGQQPAPSSTSGSYGSSSQSSSYGQPQSGSYSQQPSYGGQQQSYGQQQSYNPPQGYGQQNQYNS
As to B1, the binding result is “binds”.
